The source of these data is paper PMC8160216.

The target in the test is human M3R-mCit (muscarinic M3 receptor, C-terminally mCitrine-labeled) (human) (UniProt P20309). Briefly: FRET or BRET; single permeabilized HEK293T cells (saponin), nucleotides washed out; FRET between M3R-mCitrine and mTurquoise2-Gγ2 of the co-expressed G protein; 10 µM acetylcholine for 1 min, 2 min washout, twice; final GTPγS to induce full dissociation; stability of the complex as AUC of the normalized trace after agonist withdrawal; room temperature, internal buffer pH 7.35. On the technique in general: In BRET a luciferase serves as donor, and the signal depends on an acceptor being close.
UniProt P20309, sequence (P20309 whole entry): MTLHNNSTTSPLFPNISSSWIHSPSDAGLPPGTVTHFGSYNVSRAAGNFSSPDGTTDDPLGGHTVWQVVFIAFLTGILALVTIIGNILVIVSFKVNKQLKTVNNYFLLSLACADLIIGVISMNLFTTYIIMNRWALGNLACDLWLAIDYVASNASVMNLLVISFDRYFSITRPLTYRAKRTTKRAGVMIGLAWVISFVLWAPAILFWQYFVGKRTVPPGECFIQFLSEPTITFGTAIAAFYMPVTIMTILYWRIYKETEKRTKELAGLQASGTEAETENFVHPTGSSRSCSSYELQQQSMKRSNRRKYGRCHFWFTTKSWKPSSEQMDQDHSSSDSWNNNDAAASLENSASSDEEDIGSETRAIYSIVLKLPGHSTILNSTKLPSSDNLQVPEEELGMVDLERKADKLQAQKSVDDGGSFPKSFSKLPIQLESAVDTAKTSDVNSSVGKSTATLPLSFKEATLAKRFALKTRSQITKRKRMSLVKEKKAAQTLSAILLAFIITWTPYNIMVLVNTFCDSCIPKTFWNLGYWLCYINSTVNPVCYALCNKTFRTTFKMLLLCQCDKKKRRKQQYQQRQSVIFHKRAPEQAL

As to “GqoC11 (Gαq chimera with the C-terminal part of the α5 helix of Gαo, with Gβ1 and mTurq2-Gγ2) (from UniProt P21279 1-348; P59215 344-354; P62873 1-340; P63212 1-71) (complex)”, the reduction of the AUC of dissociation relative to Gq was < 5%. With “GqoN + C11 (Gαq chimera with the N-terminus and the last 11 amino acids of Gαo, with Gβ1 and mTurq2-Gγ2) (from UniProt P59215 344-354; P62873 1-340; P63212 1-71) (complex)”, the faster dissociation relative to Gq was < 10%.
